Assay results reported in publication PMC4104443.

Test system: O=NO
Assay: purified protein
Conditions: 50 mM potassium phosphate pH 7.0, 4 °C, anaerobic, nitrite up to 50 mM

Question: How did the Km turn out when “AxNiR (AxCuNiR) (Achromobacter xylosoxidans; F330C)” was run?
Answer: Its Km is 1200 ± 100 µM.

Question: And the kcat?
Answer: Its kcat is 310 s⁻¹.

Question: And the kcat/Km?
Answer: Its kcat/Km is 260000 M⁻¹ s⁻¹.
